Earlier results as cited in patent publication US5977174A, “Cholinergic compositions and uses thereof” (Neuromedica, Inc., priority 1997, dated 1999).

B1: C84S tPA: tPA variants in which a cysteine at position 84 of the growth factor domain of native tPA is replaced by serine (protein, UniProt P00750 36-562, looked up, variant C84S)
Tissue-type plasminogen …: SYQVICRDEKTQMIYQQHQSWLRPVLRSNRVEYCWCNSGRAQCHSVPVKSCSEPRCFNGGTCQQALYFSDFVCQCPEGFAGKCSEIDTRATCYEDQGISYRGTWSTAESGAECTNWNSSALAQKPYSGRRPDAIRLGLGNHNYCRNPDRDSKPWCYVFKAGKYSSEFCSTPACSEGNSDCYFGNGSAYRGTHSLTESGASCLPWNSMILIGKVYTAQNPSAQALGLGKHNYCRNPDGDAKPWCHVLKNRRLTWEYCDVPSCSTCGLRQYSQPQFRIKGGLFADIASHPWQAAIFAKHRRSPGERFLCGGILISSCWILSAAHCFQERFPPHHLTVILGRTYRVVPGEEEQKFEVEKYIVHKEFDDDTYDNDIALLQLKSDSSRCAQESSVVRTVCLPPADLQLPDWTECELSGYGKHEALSPFYSERLKEAHVRLYPSSRCTSQHLLNRTVTDNMLCAGDTRSGGPQANLHDACQGDSGGPLVCLNDGRMTLVGIISWGLGCGQKDVPGVYTKVTNYLDWIRDNMRP
Q: For B1, which “in vivo half life vs native tPA” value is on record?
A: longer in vivo half life than native tPA
